Laboratory results: US20090098103A1

How the values were obtained:
Test in all cases: cell-based or functional assay
[1] = target: FVIIa variant CB555 D196R (human) (UniProt P08709)
[2] = target: FVIIa variant CB556 D196A (human) (UniProt P08709)
[3] = target: FVIIa variant CB557 K197D (human) (UniProt P08709)
[4] = target: FVIIa variant CB558 K197E (human) (UniProt P08709)
[5] = target: FVIIa variant CB562 K199D (human) (UniProt P08709)
[6] = target: FVIIa variant CB563 K199E (human) (UniProt P08709)
[7] = target: FVIIa variant CB564 K199A (human) (UniProt P08709)
[8] = target: FVIIa variant CB566 R290D (human) (UniProt P08709)
[9] = target: FVIIa variant CB569 K341R (human) (UniProt P08709)
[10] = target: FVIIa variant CB579 D196R/R290E (human) (UniProt P08709)
[11] = target: FVIIa variant CB580 D196K/R290E (human) (UniProt P08709)
[12] = target: FVIIa variant CB588 D196R/K197E/K199E/R290E (human) (UniProt P08709)
[13] = target: FVIIa variant CB589 D196R/K197M/K199E (human) (UniProt P08709)
[14] = target: FVIIa variant CB590 D196R/K197M/K199E/R290E (human) (UniProt P08709)
[15] = target: FVIIa variant CB595 K197I (human) (UniProt P08709)
[16] = target: FVIIa variant CB598 K197W (human) (UniProt P08709)
[17] = target: FVIIa variant CB600 D196F (human) (UniProt P08709)
[18] = target: FVIIa variant CB603 D196L (human) (UniProt P08709)
[19] = target: FVIIa variant CB604 D196I (human) (UniProt P08709)
[20] = target: FVIIa variant CB605 G237W (human) (UniProt P08709)
[21] = target: FVIIa variant CB606 G237T (human) (UniProt P08709)
[22] = target: FVIIa variant CB608 G237V (human) (UniProt P08709)
[23] = target: FVIIa variant CB611 D196L/K197L (human) (UniProt P08709)
[24] = target: FVIIa variant CB612 D196F/K197L (human) (UniProt P08709)
[25] = target: FVIIa variant CB638 K197L/K341Q (human) (UniProt P08709)
[26] = target: FVIIa variant CB671 K197E/G237V/K341Q (human) (UniProt P08709)
[27] = target: FVIIa variant CB688 K197E/K199E (human) (UniProt P08709)
[28] = target: FVIIa variant CB691 K197E/K199E/K341Q (human) (UniProt P08709)
[29] = target: FVIIa variant CB692 K197E/G237V/M298Q/K341Q (human) (UniProt P08709)
[30] = target: FVIIa variant CB693 K197E/K199E/G237V/M298Q/K341Q (human) (UniProt P08709)
[31] = target: FVIIa variant CB694 K199E/K341Q (human) (UniProt P08709)
[32] = target: FVIIa variant CB698 R290Q (human) (UniProt P08709)
[33] = target: FVIIa variant CB699 R290K (human) (UniProt P08709)
[34] = target: FVIIa variant CB700 R290M (human) (UniProt P08709)
[35] = target: FVIIa variant CB701 R290V (human) (UniProt P08709)
[36] = target: FVIIa variant CB734 K341M (human) (UniProt P08709)
[37] = target: FVIIa variant CB735 K341D (human) (UniProt P08709)
[38] = target: wild-type Factor VII polypeptide (CB553-02), activated (FVIIa) (human) (UniProt P08709)

IC50 of TFPI inhibition of FVIIa/TF [1]: 37 nM
TFPI fold resistance (fold vs wild-type FVIIa) [1]: 0.5
pIC50 of TFPI inhibition of FVIIa/TF [1]: 7.4
IC50 of TFPI inhibition of FVIIa/TF [2]: 5 nM
TFPI fold resistance (fold vs wild-type FVIIa) [2]: < 0.3
pIC50 of TFPI inhibition of FVIIa/TF [2]: 8.3
IC50 of TFPI inhibition of FVIIa/TF [3]: 220 nM
TFPI fold resistance (fold vs wild-type FVIIa) [3]: 3
pIC50 of TFPI inhibition of FVIIa/TF [3]: 6.7
IC50 of TFPI inhibition of FVIIa/TF [4]: 310 nM
TFPI fold resistance (fold vs wild-type FVIIa) [4]: 1.3
pIC50 of TFPI inhibition of FVIIa/TF [4]: 6.5
IC50 of TFPI inhibition of FVIIa/TF [5]: 63 nM
TFPI fold resistance (fold vs wild-type FVIIa) [5]: 0.9
pIC50 of TFPI inhibition of FVIIa/TF [5]: 7.2
IC50 of TFPI inhibition of FVIIa/TF [6]: 33 nM
TFPI fold resistance (fold vs wild-type FVIIa) [6]: 1.3
pIC50 of TFPI inhibition of FVIIa/TF [6]: 7.5
IC50 of TFPI inhibition of FVIIa/TF [7]: 68 nM
TFPI fold resistance (fold vs wild-type FVIIa) [7]: 0.9
pIC50 of TFPI inhibition of FVIIa/TF [7]: 7.2
IC50 of TFPI inhibition of FVIIa/TF [8]: 240 nM
TFPI fold resistance (fold vs wild-type FVIIa) [8]: 3.3
pIC50 of TFPI inhibition of FVIIa/TF [8]: 6.6
IC50 of TFPI inhibition of FVIIa/TF [9]: 300 nM
TFPI fold resistance (fold vs wild-type FVIIa) [9]: 4.1
pIC50 of TFPI inhibition of FVIIa/TF [9]: 6.5
IC50 of TFPI inhibition of FVIIa/TF [10]: 28 nM
TFPI fold resistance (fold vs wild-type FVIIa) [10]: 0.4
pIC50 of TFPI inhibition of FVIIa/TF [10]: 7.6
IC50 of TFPI inhibition of FVIIa/TF [11]: 52 nM
TFPI fold resistance (fold vs wild-type FVIIa) [11]: 0.7
pIC50 of TFPI inhibition of FVIIa/TF [11]: 7.3
IC50 of TFPI inhibition of FVIIa/TF [12]: 28 nM
TFPI fold resistance (fold vs wild-type FVIIa) [12]: 0.4
pIC50 of TFPI inhibition of FVIIa/TF [12]: 7.6
IC50 of TFPI inhibition of FVIIa/TF [13]: 44 nM
TFPI fold resistance (fold vs wild-type FVIIa) [13]: 0.6
pIC50 of TFPI inhibition of FVIIa/TF [13]: 7.4
IC50 of TFPI inhibition of FVIIa/TF [14]: 66 nM
TFPI fold resistance (fold vs wild-type FVIIa) [14]: 0.9
pIC50 of TFPI inhibition of FVIIa/TF [14]: 7.2
TFPI fold resistance (fold vs wild-type FVIIa) [15]: 0.8
TFPI fold resistance (fold vs wild-type FVIIa) [16]: < 0.3
TFPI fold resistance (fold vs wild-type FVIIa) [17]: < 0.3
TFPI fold resistance (fold vs wild-type FVIIa) [18]: < 0.3
TFPI fold resistance (fold vs wild-type FVIIa) [19]: < 0.3
TFPI fold resistance (fold vs wild-type FVIIa) [20]: < 0.3
TFPI fold resistance (fold vs wild-type FVIIa) [21]: 0.3
TFPI fold resistance (fold vs wild-type FVIIa) [22]: 0.8
TFPI fold resistance (fold vs wild-type FVIIa) [23]: < 0.3
TFPI fold resistance (fold vs wild-type FVIIa) [24]: < 0.3
TFPI fold resistance (fold vs wild-type FVIIa) [25]: 39
TFPI fold resistance (fold vs wild-type FVIIa) [26]: 18.9
TFPI fold resistance (fold vs wild-type FVIIa) [27]: 2.1
TFPI fold resistance (fold vs wild-type FVIIa) [28]: 34.3
TFPI fold resistance (fold vs wild-type FVIIa) [29]: 15.2
TFPI fold resistance (fold vs wild-type FVIIa) [30]: 22.1
TFPI fold resistance (fold vs wild-type FVIIa) [31]: 19.1
TFPI fold resistance (fold vs wild-type FVIIa) [32]: 1.2
TFPI fold resistance (fold vs wild-type FVIIa) [33]: 0.6
TFPI fold resistance (fold vs wild-type FVIIa) [34]: 1
TFPI fold resistance (fold vs wild-type FVIIa) [35]: 2.5
TFPI fold resistance (fold vs wild-type FVIIa) [36]: 4.4
TFPI fold resistance (fold vs wild-type FVIIa) [37]: 148
IC50 of TFPI inhibition of FVIIa/TF [38]: 88 nM
TFPI fold resistance (fold vs wild-type FVIIa) [38]: 1
pIC50 of TFPI inhibition of FVIIa/TF [38]: 7.1
Substance: Human Recombinant TFPI (R&D Systems) (from UniProt P10646 29-282)
